These results are taken from a protein production outcome set (Wang et al. 2014).
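Also: failed if final PepcDB status was selected cloned or expressed and not failed if soluble or beyond.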

The nature of the data set: label from the status in PepcDB records.
“MTIAVLGATGMVGSRVITEAGARGHRVLALSRKPASEDPNVTLIAADANDPSAVREALAGVASNRAADAVVLTVRTHPVDQEFLIGATRTVLDIAAQLGIRVLVVGGAGALRSPDDHDLLVADNPTYVPAEWKTTAAAGIAQLRACQAHADADWVYLSPPALLEPGERTGRYRRGTDTLLTSADGRSWISAEDLAVAVVDELETPGRERLITVAHRDEPPSA”: the protein production result is listed as “failed”. The value for “MTIGEIIDCLNRRESIAIIAKRLEISPYTLSKKLRLIGYEYDGEQKKRIFVGDGEEPRHLQLQEATALQYAKTDYQLLIYEQLQSIYELLRKREEVIVPIMNISTEKKKRTFSINKEILAKLDVISESKGIQKSKLVEEALQQFLQQYDFNNTSHFDN” was “failed”; that for “MTIGYRDAAGDPLFPWLMEIKNSMEDLYAGKNSGYDLDKLLFDCISTYKKDSRYRNDLRFLKIWEDFERVYREIEETEICKGHSLLYEWYAIFLEVKGLWRRANSVYQTGLSRKAEPFDRLKEAHSLFLQRISKRTKASSLEKVGDDAQATDLETGFVNPWETSTVNGLIHKIKPQLVKYDGYHVSNKVFPGKANLSSLQNYSRNKIIEIGILFSYQSSLSPLQDKESFFLL” was “failed”. The value for “MTIIDDGKLKKAITAASLGNAMEWFDFGVYGFVAYALGKVFFPDANPSVQMIAALGTFSVPFLIRPLGGLFFGMLGDKYGRQKILAITIVIMSISTFCIGLIPSYATIGIWAPILLLLCKMAQGFSVGGEYTGASIFVAEYSPDRKRGFMGSWLDFGSIAGFVMGAGVVVLISSVVGEQNFLDWGWRIPFFLALPLGIIGLYLRHALEETPAFQQHVDTMEQGDREGLQDGPKVSFKEIATKHWRSLLTCIGLVISTNVTYYMLLTYMPSYLSHNLHYSEDHGVLIIIAIMVGMLFVQPVIGMLSDRFGRRPFILIGSVALFALSIPAFIMINSNVTGLIFAGLLLLAVVLNCFIGVMASSLPAMFPTHIRFSALASAFNISVLIAGLTPTLAAWLVETTQNLMMPAYYLMVIAVVGMATGLSMKETANRPLKGATPAASDIQEAKEILGEHYDNIEQKIEDIDQEIADLQAKRSRLVQQHPRIND” was “failed”. With “MTINWIQAAILGLFACLCSNSCMAGQAVGNYTIGRPLVGGLVCGIILGDLKLGIACGVAMQLVYIALVTPGGTVSADVRAISYIGIPLAMVAISTKGLDPLGGSAADLAKSVGTLVGTIGTVLFYSVAALNLVWQSFGWKDIKKGKLDHLYAINFGWPWISHLLFSFLPTVILTYFGATAVTAMRDALPMDGLAMKTLFTVGGMLPCVGIAILLRQIVNKNIDFVPFFVGFTLAASLKLNLVSITIIALLFAVIFYKIALIKNNTKLVDSTGSLTNDDEEEDI”, the protein production entry is reported as “failed”. The value for “MTIPTISELKKDRIIPHVFPNDKIDLNVDLFISFKAGKEVNHGNVLDIAGTGSVPRNIKFSEEPPDGYCFVLFMVDPDYPSRLRPDGKEYIHWVVSGIKTKELIKGTQKNCVTILPYVGPSIKKGTGLHRISFIISLIKEEDKDNITGLPHYKGEKYITRVKFNNYESVHNIAQINNMKIVGYNWCQIEG” was “failed”; that for “MTIQLTVPTIACEACAEAVTKAVQNEDAQATVQVDLTSKKVTITSALGEEQLRTAIASAGHEVE” was “not failed”.

In the case of “MTISNGDVKSETCNNGSSEKKPFRIFVGYDPREDLAYQVCHHSITKRSSIPVEITPIIQSDLRKKGLYWRERGQLESTEFSFSRFLTPHLSDYQGWAMFVDCDFLYLADIKELTDLIDDKYAIMCVQHDYTPKETTKMDGAVQTVYPRKNWSSMVLYNCGHPKNKTLSPEIVNTQTGAFLHRFQWLEDEEIGSIPFVWNFLEGHNRVVEKDPTTQPKAVHYTRGGPWFDAWKDCEFADLWLNEMEEYNKENKKEADNAK”, the protein production entry is “failed”.

With “MTISRTQQIQQLEQEWTSPRWKNITRPYSAEDVIKLRGSVNPECTFAQNGAKKLWELLHGGSRKGYINCLGALTGGQALQQAKAGVEAIYMSGWQVAADANTASSMYPDQSLYPVDSVPAVVKRINNSFRRADQIQWSNNIEPGSKGYTDYFLPIVADAEAGFGGVLNAFELMKAMIEAGAAGVHFEDQLAAVKKCGHMGGKVLVPTQEAIQKLVAARLAADVLGVPTLLIARTDADAADLLTSDCDPYDREFITGDRTAEGFFRTRAGIEQAISRGLAYAPYADLVWCETSTPDLALAKRFADAVHAQFPGKLLAYNCSPSFNWKKNLTDQQIASFQDELSAMGYKYQFITLAGIHSMWFNMFDLAHAYAQGEGMKHYVEKVQQPEFASVDRGYTFASHQQEVGTGYFDKVTNIIQGGASSVTALTGSTEEQQF”, the protein production result is “not failed”.

As for “MTISYPAKEFLQTIFKTPYLKNLYLSPTMSIYDTLIGSPATTLKRYLLKSDVAVMYTSPSTYVENEDSSFRFNQNCSPMPPWVLGTKSKTIINTLPPKKSHKRTNTDIIGIHSMTSQNSSGSSYFQLLDLLADLGELIYDDEAMKGFYYEFMNLDNKNAFNNDENLNNLMITFTNLGGASNANESGLKIGATTSGVKTKVDEDIEPLCRHYKCATMDSSFIHWITHWNLLDQVFSSNFVGEGEYYTDPNEVKRILENRDLDTRSKQGKSLYIVDLEGSVRIHVMVNTSLYGMIVLLEVRHITLAKKKNDVDDEREQENEDSS”, the protein production entry is on record as “failed”. As for “MTITNSKAEAWELIGNQFWTIGRVAARPSDRENDIFLENIVPGSTVAVIGASTRFLIEKALERGASVTVFDFSQRMCDDLAEALADRCVTIDLLDITAEIPKELAGHFDFVLNDRLINRFTTEEARRACLGMLSLVGSGTVRASVKLGFYDIDLKLIEYGEQSGTLAKFFDPSDKTFHFREAGDVLDRALVPHGLIDKPTLLEWYRRRGKETRFDDEDVRAL”, the protein production entry is on record as “failed”. As to “MTIVLIAFALYLLATALLTWAVLRDGNQSPARWLAPALAAVALHAGYHVLVAVRTAGGPDMHFFAALSLCGLGMAALTAVFGGRGRMAAVGVVVFPLSAILLASYHAYGHEPSSDLGWRLELHAWLALLAYATLGIAALLAIMLWLQERALRRRDFHSWLRALPPLTELETLLFRTITVGFVLLSLTLLTGLLFVQDFLAQRLLQKTVLSILSWIVFGALLIGRWRNGWRGTKAVHWTLTAMALLVLSFFGSKFVIELVLGPR”, the protein production result is reported as “failed”. The value for “MTIWLLQLVLVIALCNLCGRLAERLGQCAVVGEIAAGLLLGPSLFGVIAPSFYDLLFGPRTLSAMAQVGEVGLILLMFQIGLHMELSETLRGKRWRIPVAIAAGGLIAPAAIGMIVAIVSKDTLASDVPALPYILFCGVALAVSAVPVMARIIDDLALGAMVGARHAMSAAMLTDALGWMLLATIASLSSGPGWAFAHMLVSLLVYLVLCALLVRFVVRPVLARLASTAHATRDRLAVLLCFVIASALATSLIGFHSAFGALAAALFVRRVPGVAKEWRDNVEGFVKLVLMPVFFACAGLHASVGTIDDAASWMWCGVFLVGGFIGKFGGSYLGARGTGLAPHDAMLASSLMNTRGLMELIVLSIGLQMQILPPKVYTILVVFALVTTALTAPLVRFTLRMQTRAMSQQAA” was “failed”; that for “MTIYAAGLPAFLSYFSIGLVCFAIFSTIYTRLTPHEEVELIKAGNISAVVAFLGALIGFSLPLASAAAHSVSLPDYVIWAAIGLLVQVLAFYIAKLTMTDLHLKITEGNVAAGLWSGGIAVVIGTLNAACMAY” was “failed”. The entry for “MTIYNQAIESYDEKMAKDVIMLAGRILLESGAEGSRVEDTMTRIAITLGHKESNSFVTNTVINFMLHDESYPRMYRIRTRDTNLHRISRTNGISRRLALGDISLEDAFQELQKIYQEQSIKNHYLFYKFIAAAVISVSFLYLQGGHLTDVLTALLAGSFGYIVVEILQQKLHAQFIPEFMGALVIGLVTIIGHNLIPGGSISTIIIAAVMPIVPGVLITNAIQDLFGGHMLMFTTKSLEALVTAFGIGAGVSTVLIIF” is “failed”; for “MTKFNWHESAEKKWDSSAEFWNQNSQEMWDSGSRSTIIPFFEQYVKKEAQVLDVGCGDGYGTYKLSRAGYKAVGVDISEVMIQKGKERGEGPDLSFIKGDLSSLPFENEQFEAIMAINSLEWTEEPLRALNEIKRVLKSDGYACIAILGPTAKPRENSYPRLYGKDVVCNTMMPWEFEQLVKEQGFKVVDGIGVYKRGVNEKMLGQLSTELQQSLTFLWVFMLKKHKEMKEFLGGK” it is “failed”; for “MTKIACVIVTYNRKQLLEEALNSVLIQTESPEYVFVIDNASTDGTEKYINDKFNFDNRQWHYVRCSQNLGGSAGFAQGMRLALQTDCSWISISDDDAIFEPGYFAALRKGIKQYPEQSVFSGSVLLPDGKHDMMHREVITNSATLTVRCVTDETYKHDFSYDIFSFVGILLSRQVIEAIGLPEQDYFIRFDDFEYAVRALKFGRFMNLSALEHHHHHH” it is “failed”.
